Measurements reported in article PMC12507517, “Teamwork of clustered low-affinity κB sites and accessory factors regulates transcriptional strength of NF-κB RelA dimers”.
Positions count from the first letter of the chain named.

How the values were obtained:
[1] = molecular target: T1, Nfatc1 (affinity-purified) (UniProt O95644 1-698); experiment: EMSA; EMSA: 10 mM Tris-HCl pH 7.5, 50 mM NaCl, 10% glycerol, 1% NP-40, 1 mM EDTA, 0.1 mg/mL salmon sperm DNA, room temp; BLI: 25 mM Tris-HCl pH 7.5, 150 mM NaCl, 0.02% Tween 20, 0.1 mg/mL salmon sperm DNA, 1 mM DTT; details: protein: recombinant; label: 32P
T1 sequence: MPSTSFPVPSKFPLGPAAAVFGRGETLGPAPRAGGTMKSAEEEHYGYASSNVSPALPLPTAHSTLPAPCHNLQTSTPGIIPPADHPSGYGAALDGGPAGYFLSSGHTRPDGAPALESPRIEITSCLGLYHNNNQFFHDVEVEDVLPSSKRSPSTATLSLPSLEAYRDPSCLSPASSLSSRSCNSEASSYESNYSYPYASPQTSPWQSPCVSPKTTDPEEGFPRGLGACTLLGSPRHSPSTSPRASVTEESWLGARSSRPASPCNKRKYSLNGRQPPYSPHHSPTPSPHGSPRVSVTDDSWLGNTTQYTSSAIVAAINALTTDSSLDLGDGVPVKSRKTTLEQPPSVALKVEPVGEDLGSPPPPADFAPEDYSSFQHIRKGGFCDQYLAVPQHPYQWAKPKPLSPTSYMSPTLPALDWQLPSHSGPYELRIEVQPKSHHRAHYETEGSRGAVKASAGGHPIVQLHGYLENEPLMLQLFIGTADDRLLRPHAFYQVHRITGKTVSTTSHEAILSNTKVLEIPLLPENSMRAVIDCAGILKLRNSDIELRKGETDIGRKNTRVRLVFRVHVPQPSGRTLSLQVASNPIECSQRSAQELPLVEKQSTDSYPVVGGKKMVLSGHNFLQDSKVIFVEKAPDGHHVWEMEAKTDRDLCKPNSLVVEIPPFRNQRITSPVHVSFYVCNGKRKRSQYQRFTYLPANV

[2] = molecular target: T2, p50:RelA heterodimer, RelA chain;p50:RelA heterodimer, p50 chain (;, UniProt Q04206;P19838 1-551;1-435, |); experiment: as above; details: protein: recombinant;recombinant; tags: His;His; copies: 1;1; label: 32P
[3] = molecular target: T3, Tead3 (affinity-purified) (UniProt Q99594 1-435); experiment: as above; details: protein: recombinant; label: 32P
[4] = molecular target: T4, RelA homodimer (UniProt Q04206 1-551); experiment: as above; details: protein: recombinant; tags: His; chain copies: 2; label: 32P
[5] = molecular target: T3, Tead3 (affinity-purified); experiment: EMSA; strong site only; EMSA: 10 mM Tris-HCl pH 7.5, 50 mM NaCl, 10% glycerol, 1% NP-40, 1 mM EDTA, 0.1 mg/mL salmon sperm DNA, room temp; BLI: 25 mM Tris-HCl pH 7.5, 150 mM NaCl, 0.02% Tween 20, 0.1 mg/mL salmon sperm DNA, 1 mM DTT; details: protein: recombinant; label: 32P
[6] = molecular target: T2, p50:RelA heterodimer, RelA …; experiment: EMSA; no discernible effect of mutation; EMSA: 10 mM Tris-HCl pH 7.5, 50 mM NaCl, 10% glycerol, 1% NP-40, 1 mM EDTA, 0.1 mg/mL salmon sperm DNA, room temp; BLI: 25 mM Tris-HCl pH 7.5, 150 mM NaCl, 0.02% Tween 20, 0.1 mg/mL salmon sperm DNA, 1 mM DTT; details: protein: recombinant;recombinant; tags: His;His; copies: 1;1; label: 32P
[7] = molecular target: T4, RelA homodimer; experiment: as above; details: protein: recombinant; tags: His; chain copies: 2; label: 32P
[8] = molecular target: T5, Nfat5 RHR WT (UniProt O94916 264-544); experiment: EMSA; no observable binding; EMSA: 10 mM Tris-HCl pH 7.5, 50 mM NaCl, 10% glycerol, 1% NP-40, 1 mM EDTA, 0.1 mg/mL salmon sperm DNA, room temp; BLI: 25 mM Tris-HCl pH 7.5, 150 mM NaCl, 0.02% Tween 20, 0.1 mg/mL salmon sperm DNA, 1 mM DTT; details: protein: recombinant; chain copies: 2; label: 32P
T5 sequence: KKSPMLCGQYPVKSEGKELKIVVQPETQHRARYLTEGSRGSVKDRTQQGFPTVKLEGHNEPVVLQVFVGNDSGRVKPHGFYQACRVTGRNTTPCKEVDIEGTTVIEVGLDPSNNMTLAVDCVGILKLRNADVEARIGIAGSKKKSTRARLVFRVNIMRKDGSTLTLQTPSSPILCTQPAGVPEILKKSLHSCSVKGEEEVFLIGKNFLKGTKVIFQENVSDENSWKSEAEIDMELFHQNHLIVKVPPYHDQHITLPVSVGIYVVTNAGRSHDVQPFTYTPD

[9] = molecular target: T6, Nfat5 RHR mutant (UniProt O94916 264-544, R295S;Y296S); experiment: as above; details: protein: recombinant; chain copies: 2; label: 32P
T6 sequence: T5 sequence with R32S, Y33S

[10] = molecular target: T2, p50:RelA heterodimer, RelA …; experiment: EMSA; binding retained; EMSA: 10 mM Tris-HCl pH 7.5, 50 mM NaCl, 10% glycerol, 1% NP-40, 1 mM EDTA, 0.1 mg/mL salmon sperm DNA, room temp; BLI: 25 mM Tris-HCl pH 7.5, 150 mM NaCl, 0.02% Tween 20, 0.1 mg/mL salmon sperm DNA, 1 mM DTT; details: protein: recombinant;recombinant; tags: His;His; copies: 1;1; label: 32P
[11] = molecular target: T4, RelA homodimer; experiment: as above; details: protein: recombinant; tags: His; chain copies: 2; label: 32P
[12] = molecular target: T3, Tead3 (affinity-purified); experiment: EMSA; weak site only; EMSA: 10 mM Tris-HCl pH 7.5, 50 mM NaCl, 10% glycerol, 1% NP-40, 1 mM EDTA, 0.1 mg/mL salmon sperm DNA, room temp; BLI: 25 mM Tris-HCl pH 7.5, 150 mM NaCl, 0.02% Tween 20, 0.1 mg/mL salmon sperm DNA, 1 mM DTT; details: protein: recombinant; label: 32P

T3 sequence (Q99594 whole entry): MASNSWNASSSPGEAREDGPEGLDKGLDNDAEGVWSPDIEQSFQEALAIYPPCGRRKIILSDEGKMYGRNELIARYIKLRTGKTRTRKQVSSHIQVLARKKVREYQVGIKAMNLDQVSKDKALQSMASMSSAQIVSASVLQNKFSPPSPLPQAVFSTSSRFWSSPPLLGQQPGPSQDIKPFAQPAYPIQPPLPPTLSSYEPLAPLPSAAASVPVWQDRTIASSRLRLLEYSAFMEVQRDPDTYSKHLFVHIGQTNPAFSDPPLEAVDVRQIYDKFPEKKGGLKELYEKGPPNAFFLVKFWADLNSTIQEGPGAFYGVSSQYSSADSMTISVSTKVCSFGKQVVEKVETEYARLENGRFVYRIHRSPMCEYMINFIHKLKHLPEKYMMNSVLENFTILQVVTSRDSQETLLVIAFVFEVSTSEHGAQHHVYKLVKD
T2 sequence (Q04206 whole entry, chain 1 of 2): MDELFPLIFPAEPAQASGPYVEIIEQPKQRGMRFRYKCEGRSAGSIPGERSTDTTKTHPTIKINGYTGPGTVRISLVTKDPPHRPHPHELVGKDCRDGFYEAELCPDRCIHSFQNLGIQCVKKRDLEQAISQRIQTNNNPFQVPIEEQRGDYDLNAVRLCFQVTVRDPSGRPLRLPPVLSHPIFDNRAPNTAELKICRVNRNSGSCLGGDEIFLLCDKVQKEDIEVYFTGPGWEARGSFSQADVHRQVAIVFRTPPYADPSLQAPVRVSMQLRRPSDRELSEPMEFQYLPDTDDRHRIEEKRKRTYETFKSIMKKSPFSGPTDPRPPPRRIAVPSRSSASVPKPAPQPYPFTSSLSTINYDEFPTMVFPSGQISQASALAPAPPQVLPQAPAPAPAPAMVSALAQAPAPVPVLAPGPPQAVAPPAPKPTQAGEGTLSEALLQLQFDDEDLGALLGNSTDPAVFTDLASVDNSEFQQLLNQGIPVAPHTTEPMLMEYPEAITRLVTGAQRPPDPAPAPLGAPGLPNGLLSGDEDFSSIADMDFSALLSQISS
T2 sequence (P19838 1-435, chain 2 of 2): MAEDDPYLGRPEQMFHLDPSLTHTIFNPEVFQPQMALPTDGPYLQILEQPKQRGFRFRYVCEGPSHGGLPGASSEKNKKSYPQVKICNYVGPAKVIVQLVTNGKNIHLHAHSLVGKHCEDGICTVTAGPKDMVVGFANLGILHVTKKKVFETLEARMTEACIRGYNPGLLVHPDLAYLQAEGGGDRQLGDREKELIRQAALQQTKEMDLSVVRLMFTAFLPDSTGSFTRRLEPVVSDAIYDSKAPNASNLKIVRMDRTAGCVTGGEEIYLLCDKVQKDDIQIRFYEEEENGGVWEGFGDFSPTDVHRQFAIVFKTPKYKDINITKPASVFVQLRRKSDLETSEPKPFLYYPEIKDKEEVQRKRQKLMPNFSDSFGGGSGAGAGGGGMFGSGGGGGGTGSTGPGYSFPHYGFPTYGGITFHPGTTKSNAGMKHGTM
T4 sequence (Q04206 whole entry): as the sequence (Q04206 whole entry, chain 1 of 2) above

B1: 2DM Cxcl2 probe (both sites mutated) (dsDNA)
DNA 1: TCGACATGAGGGGACCCTGAGCTCAGCTAATTTGACTGGTCCCCGGGCTTTTGGAG
DNA 2: CTCCAAAAGCCCGGGGACCAGTCAAATTAGCTGAGCTCAGGGTCCCCTCATGTCGA
binding result [1]: no binding | binding result [2]: no binding | binding result [3]: no binding | binding result [4]: no binding

B2: 2ΔW Cxcl2 probe (weak site mutated) (dsDNA)
DNA 1: B1 DNA 1 with C27G, T28G, G34C, A35C
DNA 2: B1 DNA 2 with T22G, C23G, A29C, G30C
binding result [1]: binds | binding result [5]: binds | binding result [6]: binds | binding result [7]: binds

B3: Nfat EMSA probe (dsDNA)
DNA 1: B1 DNA 1 with C27G, T28G, G34C, A35C, G53C, G54C
DNA 2: B1 DNA 2 with C3G, C4G, T22G, C23G, A29C, G30C
binding result [8]: no binding | binding result [9]: no binding

B4: 2ΔS Cxcl2 probe (strong site mutated) (dsDNA)
DNA 1: B1 DNA 1 with G53C, G54C
DNA 2: B1 DNA 2 with C3G, C4G
binding result [1]: binds | binding result [10]: binds | binding result [11]: binds | binding result [12]: no binding

B5: 2WT Cxcl2 probe (dsDNA)
DNA 1: B1 DNA 1 with C27G, T28G, G34C, A35C, G53C, G54C
DNA 2: B1 DNA 2 with C3G, C4G, T22G, C23G, A29C, G30C
binding result [1]: binds | binding result [3]: binds
